1 molecule from article doi:10.1101/815886 can be followed below.

Series [1] has as its target CST with CTC1 K1164E/K1167E (human, UniProt Q2NKJ3;Q9H668;Q86WV5 1-1217;1-368;1-123, K1164E;K1167E;CTC1:). Kind of series: EMSA. Background: A gel shift assay detects complexes by their altered migration in electrophoresis.
Series [2] concerns the target CST with CTC1 R1193E/R1195E (human, UniProt Q2NKJ3;Q9H668;Q86WV5 1-1217;1-368;1-123, R1193E;R1195E;CTC1:). Nature of the series: EMSA.
In series [3] the target is CST with CTC1 K743E/R744E (human, UniProt Q2NKJ3;Q9H668;Q86WV5 1-1217;1-368;1-123, K743E;R744E;CTC1:). Nature of the series: EMSA.
For series [4], the target named is CST with CTC1 V967A/S979A/H980A (human, UniProt Q2NKJ3;Q9H668;Q86WV5 1-1217;1-368;1-123, V967A;S979A;H980A;CTC1:). Kind of series: EMSA.
Series [5] concerns the target CST wild type (CTC1-STN1-TEN1) (human, UniProt Q2NKJ3;Q9H668;Q86WV5 1-1217;1-368;1-123). Kind of series: cryo-EM.

Sequence of CST with CTC1 V967A/S979A/H980A (Q2NKJ3 whole entry V967A/S979A/H980A, chain 1 of 3): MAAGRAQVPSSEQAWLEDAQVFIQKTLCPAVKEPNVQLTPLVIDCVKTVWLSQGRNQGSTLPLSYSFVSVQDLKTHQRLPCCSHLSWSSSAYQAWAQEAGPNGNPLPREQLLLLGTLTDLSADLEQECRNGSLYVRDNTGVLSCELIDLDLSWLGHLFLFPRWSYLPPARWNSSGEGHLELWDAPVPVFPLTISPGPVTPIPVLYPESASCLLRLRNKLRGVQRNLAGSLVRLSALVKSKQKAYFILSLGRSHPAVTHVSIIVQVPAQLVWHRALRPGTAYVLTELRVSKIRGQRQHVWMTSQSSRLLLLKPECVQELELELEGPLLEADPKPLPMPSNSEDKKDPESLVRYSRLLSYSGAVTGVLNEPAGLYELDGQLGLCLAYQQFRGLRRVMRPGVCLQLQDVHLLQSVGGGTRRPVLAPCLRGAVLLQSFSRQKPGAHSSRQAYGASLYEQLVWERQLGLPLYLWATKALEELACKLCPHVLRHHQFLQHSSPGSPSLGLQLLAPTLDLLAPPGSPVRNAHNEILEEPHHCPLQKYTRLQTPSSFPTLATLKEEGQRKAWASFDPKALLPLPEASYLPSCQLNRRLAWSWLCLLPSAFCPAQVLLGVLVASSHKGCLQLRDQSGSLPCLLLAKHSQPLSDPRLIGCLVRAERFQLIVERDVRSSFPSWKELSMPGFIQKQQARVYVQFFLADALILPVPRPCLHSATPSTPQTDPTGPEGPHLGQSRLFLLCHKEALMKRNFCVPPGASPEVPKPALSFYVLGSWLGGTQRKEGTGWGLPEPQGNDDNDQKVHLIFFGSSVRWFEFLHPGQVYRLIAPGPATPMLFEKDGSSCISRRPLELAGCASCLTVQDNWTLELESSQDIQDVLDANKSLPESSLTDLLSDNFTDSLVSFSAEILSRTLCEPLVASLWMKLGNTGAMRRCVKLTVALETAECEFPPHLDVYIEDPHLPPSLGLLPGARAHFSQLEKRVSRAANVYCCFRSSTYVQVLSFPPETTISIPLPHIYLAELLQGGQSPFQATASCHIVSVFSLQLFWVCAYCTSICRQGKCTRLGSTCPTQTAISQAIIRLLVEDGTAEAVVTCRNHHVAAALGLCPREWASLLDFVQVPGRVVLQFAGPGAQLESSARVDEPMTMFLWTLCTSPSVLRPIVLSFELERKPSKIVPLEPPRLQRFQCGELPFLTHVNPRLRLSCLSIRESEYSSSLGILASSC
Sequence of CST with CTC1 V967A/S979A/H980A (Q9H668 whole entry, stated change not applied, chain 2 of 3): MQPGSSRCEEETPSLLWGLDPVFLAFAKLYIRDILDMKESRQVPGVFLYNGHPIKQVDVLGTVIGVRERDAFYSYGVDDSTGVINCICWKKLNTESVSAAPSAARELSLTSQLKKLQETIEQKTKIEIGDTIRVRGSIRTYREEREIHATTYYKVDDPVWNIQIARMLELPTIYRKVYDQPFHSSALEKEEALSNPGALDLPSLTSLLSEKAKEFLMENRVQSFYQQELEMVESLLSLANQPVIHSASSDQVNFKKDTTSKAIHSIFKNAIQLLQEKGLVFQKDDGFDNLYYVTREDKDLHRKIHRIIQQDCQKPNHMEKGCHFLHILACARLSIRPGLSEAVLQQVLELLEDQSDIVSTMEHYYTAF
Sequence of CST with CTC1 V967A/S979A/H980A (Q86WV5 whole entry, stated change not applied, chain 3 of 3): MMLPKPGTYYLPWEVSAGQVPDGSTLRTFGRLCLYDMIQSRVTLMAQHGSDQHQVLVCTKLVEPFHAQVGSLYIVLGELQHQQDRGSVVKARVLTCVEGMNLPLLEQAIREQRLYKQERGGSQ
Sequence of CST with CTC1 K743E/R744E (Q2NKJ3 whole entry K743E/R744E, chain 1 of 3): as the sequence (Q2NKJ3 whole entry V967A/S979A/H980A, chain 1 of 3) above, with K743E, R744E, A967V, A979S, A980H counted along it
Sequence of CST with CTC1 K743E/R744E (Q9H668 whole entry, stated change not applied, chain 2 of 3): as the sequence (Q9H668 whole entry, stated change not applied, chain 2 of 3) above
Sequence of CST with CTC1 K743E/R744E (Q86WV5 whole entry, stated change not applied, chain 3 of 3): as the sequence (Q86WV5 whole entry, stated change not applied, chain 3 of 3) above
Sequence of CST with CTC1 R1193E/R1195E (Q2NKJ3 whole entry R1193E/R1195E, chain 1 of 3): as the sequence (Q2NKJ3 whole entry V967A/S979A/H980A, chain 1 of 3) above, with A967V, A979S, A980H, R1193E, R1195E counted along it
Sequence of CST with CTC1 R1193E/R1195E (Q9H668 whole entry, stated change not applied, chain 2 of 3): as the sequence (Q9H668 whole entry, stated change not applied, chain 2 of 3) above
Sequence of CST with CTC1 R1193E/R1195E (Q86WV5 whole entry, stated change not applied, chain 3 of 3): as the sequence (Q86WV5 whole entry, stated change not applied, chain 3 of 3) above
Sequence of CST wild type (CTC1-STN1-TEN1) (Q2NKJ3 whole entry, chain 1 of 3): as the sequence (Q2NKJ3 whole entry V967A/S979A/H980A, chain 1 of 3) above, with A967V, A979S, A980H counted along it
Sequence of CST wild type (CTC1-STN1-TEN1) (Q9H668 whole entry, chain 2 of 3): as the sequence (Q9H668 whole entry, stated change not applied, chain 2 of 3) above
Sequence of CST wild type (CTC1-STN1-TEN1) (Q86WV5 whole entry, chain 3 of 3): as the sequence (Q86WV5 whole entry, stated change not applied, chain 3 of 3) above
Sequence of CST with CTC1 K1164E/K1167E (Q2NKJ3 whole entry K1164E/K1167E, chain 1 of 3): as the sequence (Q2NKJ3 whole entry V967A/S979A/H980A, chain 1 of 3) above, with A967V, A979S, A980H, K1164E, K1167E counted along it
Sequence of CST with CTC1 K1164E/K1167E (Q9H668 whole entry, stated change not applied, chain 2 of 3): as the sequence (Q9H668 whole entry, stated change not applied, chain 2 of 3) above
Sequence of CST with CTC1 K1164E/K1167E (Q86WV5 whole entry, stated change not applied, chain 3 of 3): as the sequence (Q86WV5 whole entry, stated change not applied, chain 3 of 3) above

B1: 3xTEL (ssDNA)
DNA: TTAGGGTTAGGGTTAGGG
Take B1: the binding result is listed as “no binding” in series [1]; “no binding” in series [2]; “binds” in series [3]; “no binding” in series [4]; “binds” in series [5].
